These results are taken from publication PMC4092071.

What all share (assay): equilibrium inhibitor binding assay (free trypsin by residual activity on a fluorogenic substrate); BPTI variants (0-100 pM) and trypsin (50 pM) in solution, 15 h at 22°C, 0.1 M Tris-HCl (pH 8.0), 1 mM CaCl2, 0.05% Tween 20; free trypsin from cleavage of Z-Gly-Pro-Arg-AMC; free protease against total inhibitor fitted with a quadratic equation
Test [1] has as its target non-sulfated human anionic trypsin (human) (UniProt P07478).
Test [2] addresses non-sulfated human cationic trypsin (human).
Test [3] concerns the target sulfated human anionic trypsin (human) (UniProt P07478).
The target in test [4] is sulfated human cationic trypsin (human).

Consider “BPTI variant carrying Ala at P2′ (P1′ Ala, P3′ Asp, P4′ Ile, P19′ Val) (designed binder)”, for which the Kd in test [1] turned out to be 0.3 pM; in test [2], 0.7 pM; in test [3] it was 2.2 pM; in test [4] it was 7.9 pM.
Consider “BPTI variant carrying Arg at P2′ (P1′ Ala, P3′ Asp, P4′ Ile, P19′ Val) (designed binder)”, for which the Kd in test [1] stood at 0.7 pM; in test [2], 0.9 pM; in test [3] it was 0.4 pM; in test [4], 1 pM.
As to “BPTI variant carrying Lys at P2′ (P1′ Ala, P3′ Asp, P4′ Ile, P19′ Val) (designed binder)”, the Kd in test [1] was found to be 1.6 pM; in test [2], 3.9 pM; in test [3], 1.3 pM; in test [4], 3.3 pM.
In the case of “BPTI variant carrying Leu at P2′ (P1′ Ala, P3′ Asp, P4′ Ile, P19′ Val) (designed binder)”, the Kd in test [1] was 1.2 pM; in test [2] it was 1.2 pM; in test [3], 4 pM; in test [4], 13.4 pM.
Turning to “BPTI variant carrying Ile at P2′ (P1′ Ala, P3′ Asp, P4′ Ile, P19′ Val) (designed binder)”, the Kd in test [1] stood at 0.3 pM; in test [2], 0.5 pM; in test [3] it was 1.3 pM; in test [4] it was 3.2 pM.
